{"source": "paper PMC5496856", "proteins": {"B1": {"name": "MPT32 (also called Rv1860 or Apa): T10V (protein)", "parent chain": "MHQVDPNLTRRKGRLAALAIAAMASASLVTVAVPATANADPEPAPPVPTTAASPPSTAAAPPAPATPVAPPPPAAANTPNAQPGDPNAAPPPADPNAPPPPVIAPNAPQPVRIDNPVGGFSFALPAGWVESDAAHFDYGSALLSKTTGDPPFPGQPPPVANDTRIVLGRLDQKLYASAEATDSKAAARLGSDMGEFYMPYPGTRINQETVSLDANGVSGSASYYEVKFSDPSKPNGQIWTGVIGSPAANAPDAGPPQRWFVVWLGTANNPVDKGAAKALAESIRPLVAPPPAPAPAPAEPAPAPAPAGEVAPTPTTPTPQRTLPA"}, "B2": {"name": "MPT32 (also called Rv1860 or Apa): T18V (protein)", "parent chain": "MHQVDPNLTRRKGRLAALAIAAMASASLVTVAVPATANADPEPAPPVPTTAASPPSTAAAPPAPATPVAPPPPAAANTPNAQPGDPNAAPPPADPNAPPPPVIAPNAPQPVRIDNPVGGFSFALPAGWVESDAAHFDYGSALLSKTTGDPPFPGQPPPVANDTRIVLGRLDQKLYASAEATDSKAAARLGSDMGEFYMPYPGTRINQETVSLDANGVSGSASYYEVKFSDPSKPNGQIWTGVIGSPAANAPDAGPPQRWFVVWLGTANNPVDKGAAKALAESIRPLVAPPPAPAPAPAEPAPAPAPAGEVAPTPTTPTPQRTLPA"}}, "conditions": "glycan lost; control: wild type", "data": [{"protein": "B1", "values": [{"measurement": "other: T cell antigenicity", "result": "no change"}]}, {"protein": "B2", "values": [{"measurement": "other: T cell antigenicity", "result": "increases"}]}]}
